For orientation: stoichiometry N means the number of molecules, sites or subunits per partner or assembly.

Holding throughout (experiment): cryo-EM structure; single particle analysis of extended AlgoCIS particles assembled in A. machipongonensis and purified whole, in buffer B (20 mM Tris pH 7.5, 150 mM NaCl); cap 2.5 Å, extended sheath-tube 2.4 Å, baseplate 2.7-2.9 Å, whole particle 4.4 Å
In test [1] the target is Alg1 (inner tube protein of AlgoCIS) (Algoriphagus machipongonensis PR1 (endogenous in A. machipongonensis)).
Test [2] deals with Alg6 (plug protein of AlgoCIS) (Algoriphagus machipongonensis PR1 (endogenous in A. machipongonensis)).
Test [3] addresses Alg8 (central spike protein of AlgoCIS) (Algoriphagus machipongonensis PR1 (endogenous in A. machipongonensis)).
Test [4] deals with Alg11 (baseplate wedge protein of AlgoCIS, forms the spike cage) (Algoriphagus machipongonensis PR1 (endogenous in A. machipongonensis)).
Test [5] concerns the target Alg16A (cap protein of AlgoCIS) (Algoriphagus machipongonensis PR1 (endogenous in A. machipongonensis)).
For test [6], the target named is Alg16B (cap adaptor protein of AlgoCIS) (Algoriphagus machipongonensis PR1 (endogenous in A. machipongonensis)).

In turn, “Alg1 (inner tube protein of AlgoCIS) (natural protein)” gave a stoichiometry N in test [1] of 6.

For “Alg6 (plug protein of AlgoCIS) (natural protein)”, the stoichiometry N in test [2] worked out at 3.

“Alg8 (central spike protein of AlgoCIS) (natural protein)” gave a stoichiometry N in test [3] of 3.

In the case of “Alg11 (baseplate wedge protein of AlgoCIS, forms the spike cage) (natural protein)”, in test [4], the stoichiometry N stood at 6.

“Alg16A (cap protein of AlgoCIS) (natural protein)”: the stoichiometry N in test [5] amounted to 6.

As to “Alg16B (cap adaptor protein of AlgoCIS) (natural protein)”, in test [6], the stoichiometry N is 6.
